One data set addresses T1, Saci_2032 (G3PDH) (Sulfolobus acidocaldarius, UniProt Q4J7A2).
T1 construct: full length, N-terminal His tag (pET15b), E. coli Rosetta (DE3); homodimer with 2 FAD; without CoxG
Kind of data set: absorption spectrum of bound FAD, […] nm, after SDS denaturation. The data set is classed as binding. Particulars: two FAD per homodimer; non-covalent per family; reduced by G3P at 70 °C.

The next data set concerns the target T2, Saci_1118 (G3PDH) (Sulfolobus acidocaldarius, UniProt Q4J9Q8).
T2 construct: full length, N-terminal His tag (pET15b), E. coli Rosetta (DE3); homodimer with 2 FAD; without CoxG
The description is as above. The data set is classed as binding. Particulars: two FAD per homodimer; non-covalent per family; reduced by G3P at 70 °C.

Data set [1] deals with the molecule itself. Kind of data set: SEC; Superose 6 Increase 10/300 GL, 50 mM TRIS-HCl pH 7.5, 250 mM NaCl; GKs 50 µg in 200 µL, G3PDHs 19 mg Saci_2032 or 6 mg Saci_1118 in 500 µL; calibrated with LMW and HMW gel filtration kits; native mass compared with subunit mass.
Substrate in data set [2]: OCC(O)CO
Kind of data set: purified protein. The data set is classed as biochemical, Sulfolobus acidocaldarius.

Substrate in data set [3]: Nc1ncnc2c1ncn2[C@@H]1O[C@H](COP(=O)(O)OP(=O)(O)OP(=O)(O)O)[C@@H](O)[C@H]1O
In words: purified protein. The data set is classed as biochemical, Sulfolobus acidocaldarius. Particulars: 2 mM glycerol.

Substrate in data set [4]: COC1=C(OC)C(=O)C(CC=C(C)C)=C(C)C1=O
In words: purified protein. The data set is classed as biochemical, Sulfolobus acidocaldarius. Particulars: 0.4 mM G3P, no DCPIP, 50 mM HEPES-KOH pH 6.5, 100 mM KCl, 70 °C.

Substrate in data set [5]: O=P(O)(O)OC[C@H](O)CO
In words: purified protein. The data set is classed as biochemical, Sulfolobus acidocaldarius. As to conditions: 0.06 mM DCPIP as electron acceptor, 50 mM HEPES-KOH pH 6.5, 100 mM KCl, 70 °C.

The mark [6] stands for this setting: 1 mM ATP, 1 mM MgCl2, 0.1 M TRIS-HCl pH 7, 50 °C.
The mark [7] stands for this setting: 5 mM ATP, 5 mM MgCl2, 0.1 M MOPS-KOH pH 6.5, 50 °C.

As to `Cc1cc2nc3c(=O)[nH]c(=O)nc-3n(C[C@H](O)[C@H](O)[C@H](O)COP(=O)(O)OP(=O)(O)OC[C@H]3O[C@@H](n4cnc5c(N)ncnc54)[C@H](O)[C@@H]3O)c2cc1C` [FAD], the “absorption spectrum of bound FAD, 450 nm, after SDS denaturation” value at Saci_2032 (G3PDH) and at Saci_1118 (G3PDH) was “a FAD content of two per homodimer was determined for both enzymes” throughout.

B1: glycerol kinase Saci_1117 (enzyme, S. acidocaldarius DSM 639, UniProt Q4J9R1 1-498, looked up)
chain: MSKYILAVDEGTTSARALVFDEDLNVISIAQTELTQYFPRPGYVEQNPEEIFEKQVSMIKKAVEKAKIEISQVSAIGIANQRETTIMWDSRSGRPVYNAVVWQDRRTSDITDWLKSNYLNLFKSKTGLIPDPYFSASKIKWILDNVPGVREKAERGEIKFGTVDTYLIWKLTNGKVHVTDYSNASRTMLFNIKKLEWDRDILEILEIPEAILPEVRSSSEVYGYAEPVGNIPISGDAGDQQAALFGQLGFSKGDVKCTYGTGSFILMNSGEEIYDSKDLLTTIAWKIGKDVKYALEGSIFTTGAAVQWVRDGLGLVSSSDEIESLASSVVDNGGVYFVPAFSGLGSPYWDPYARGLIIGISRGTSRGHIARAVLESIAYQVRDVIEVIKKDVGKEFVNVLKVDGGVSKNNLLMQFQADILGIRIVRPRVIETTSMGASMLAGLAVDYWSSLEELKSKWAVDREFIPSLQEDRRERLYKGWKEAVRRTIGWAREVETME
notes: Glycerol kinase Saci_1117 of Sulfolobus acidocaldarius DSM 639, 498 amino acids, calculated mass 55.6 kDa; ORF amplified from genomic DNA; The results call the protein C-terminally His-tagged; also called GK; GlpK homologue; source: S. acidocaldarius MW001, homologous overexpression (pSVAmalFX-saci_1117-SH10), purified (Strep-Tactin XT 4Flow column)
For B1, in data set [1], the “stoichiometry N” value came out at 2. Also, in the data set “purified protein [2]” (setting [6]), the Michaelis constant (Km) stood at 24 ± 1 µM, the maximal velocity (Vmax) was 45.7 µmol/min/mg and the kcat/Km is 6.4e+06 ± 507000 M⁻¹ s⁻¹. For the same molecule, in the data set “purified protein [3]” (0.1 M TRIS-HCl pH 7, 50 °C), the Km was 205 ± 24 µM, the Vmax is 50.8 µmol/min/mg and the kcat/Km is 229000 ± 28400 M⁻¹ s⁻¹.

B2: glycerol-3-phosphate dehydrogenase Saci_1118 (His-tagged, recombinant) (enzyme, S. acidocaldarius DSM 639, UniProt Q4J9Q8 1-428, looked up)
chain: MKQNSSVIVIGGGATGLFTALDLSLRGINVTLVERGDIASGTSGKFHGLLHSGARYAVNDPESAKECKQENEVLSKIAPEFVRDTGGVFVGITEDDVNYSQRFLSALNSLGITNKVMDVEELIRREPFINKKSKIAIWVPDKVVYGYDLLATVALTASLNGAKILTYNEVKRVLREGNSVRRVEVKDNISGETKILNGDIIVNTAGPWAFRVIEMAGLGEIPLLPTAGIMVVMKEKLNSMVINRLRPPSDGDIIVPYGDSSIIGTTATIIPDPDNFEISDEDINMLIEEGAYMIPRLKEVKPERAYASVRPLIKNAEDGRGATRDFMIIDHEKVDSLDGLISVIGGKFTTSRLAGEKVSDMVSEKLGIREKSKTATIKLMSELDEKLLEKKRVPKVLVKMIRERKGSLDEDRYSTAMYILLSLLARGE
notes: GlpA-like FAD-dependent glycerol-3-phosphate dehydrogenase Saci_1118 of Sulfolobus acidocaldarius DSM 639, calculated mass 46.9 kDa; ORF amplified from genomic DNA; also called G3PDH; GlpA-like; source: E. coli Rosetta (DE3), pET15b-saci_1118, purified (Nickel-IDA)
Take B2: the “stoichiometry N” value in data set [1] turned out to be 2. Also, in “purified protein [4]”, the Michaelis constant (Km) stood at 86 ± 19 µM, the Vmax worked out at 18.7 µmol/min/mg and the kcat/Km came to 170000 ± 39700 M⁻¹ s⁻¹. In “purified protein [5]”, the Km is 19 ± 3 µM, the maximal velocity (Vmax) stood at 19.6 µmol/min/mg and the kcat/Km worked out at 808000 ± 131000 M⁻¹ s⁻¹.

B3: glycerol-3-phosphate dehydrogenase Saci_2032 (His-tagged, recombinant) (enzyme, S. acidocaldarius DSM 639, UniProt Q4J7A2 1-431, looked up)
chain: MEIKTSVLVIGGGANGLFTALDLALRGIDVTLVERRDIGSGTSGRFHGLLHSGARYAVTDPESAKECIQENNIISKIAPHAIRDTGGLFLGITKEDLEFLDKFLSSLKKLGIEHKIVDNNQVLQEEPYVNKDLKIAIWVPDKVVYGYDLLSSIAVTGSLNKARIMTYNEVTEFIRDGNSIKGVKVFDKITNQMNLIKSDIIINTSGPWAFKIITMAGLEEIPILPTAGIMAVFGKKVNNAVLNRLRPPSDGDIIVPYQDTSILGTTATIIEDPDNFTISDEDVKMLIKEGSQLVPELSKTRVIRTYASVRPLMRTSEDGRKASRDFTILDHEREDGVSGLISIIGGKFTTSRLVGEKVGDLVSEKLGVRAKSKTKETKLISPSEIDFEKYLEKIGISKIFLKSVMERRGSLDEERYKTVLYLLLSLIARGR
notes: GlpA-like FAD-dependent glycerol-3-phosphate dehydrogenase Saci_2032 of Sulfolobus acidocaldarius DSM 639, calculated mass 47.6 kDa; ORF amplified from genomic DNA; also called G3PDH; GlpA-like; source: E. coli Rosetta (DE3), pET15b-saci_2032, purified (Nickel-IDA)
On to B3, for which the “stoichiometry N” value in data set [1] amounted to 2. In addition, in “purified protein [4]”, the Km stood at 179 ± 75 µM, the Vmax is 21.1 µmol/min/mg and the kcat/Km is 128000 ± 58900 M⁻¹ s⁻¹. For the same molecule, in the data set “purified protein [5]”, the Km was 55 ± 9 µM, the maximum rate (Vmax) turned out to be 44.5 µmol/min/mg and the catalytic efficiency (kcat/Km) worked out at 642000 ± 111000 M⁻¹ s⁻¹.

B4: glycerol kinase Saci_2033 (enzyme, S. acidocaldarius DSM 639, UniProt Q4J7A3 1-497, looked up)
chain: MAEKYVIAIDEGTTSARAIVFDKELNILGIGQNEFTQYYPQPGYVEHSPEEIWQAQLLAINKALEKAKIDRNNILSIGITNQRETTVMWDTRTGKPIYNAIVWQDRRTAPITDYLKANYLRLIKDRTGLVPDPYFSASKIKWILDNIPNAREKAEKGEIKFGTIDTYLIWKLTNGKAHVTDYSNASRTMLFNIRKLEWDREILEILNIPEAILPDVKPSSEIYGYAEILNSSIPISGDAGDQQAALFGQIAFNQGDVKCTYGTGSFILLNTGSNLVSSNDLLTTIAWGVGKGITYALEGSIFITGAAVQWFRDGLRAIDVSDEIEPLAGSVPDNGGVYFVPAFTGLGAPYWDPYARGLIIGITRGTTKAHIARAILESMAYQTMDVLGIMQRDSGIKIDALKVDGGASKNDLLMQFQADILKMKVVRPKIMETTSMGVAMLAGLSVGYWNSMDELKQKWKIDQVFEPKMDDEYREKLYSGWKEAVRRALGWAKTIGG
notes: Glycerol kinase Saci_2033 of Sulfolobus acidocaldarius DSM 639, 497 amino acids, calculated mass 55.3 kDa; ORF amplified from genomic DNA; also called GK; GlpK
Regarding B4, the “stoichiometry N” value in data set [1] is 2. In “purified protein [2]” (setting [7]), the Michaelis-Menten constant (Km) came to 24 ± 4 µM, the maximum rate (Vmax) is 88.2 µmol/min/mg and the kcat/Km was 1.31e+07 ± 2.2e+06 M⁻¹ s⁻¹. For the same molecule, in the data set “purified protein [3]” (0.1 M MOPS-KOH pH 6.5, 50 °C), the Km stood at 174 ± 19 µM, the Vmax is 91 µmol/min/mg and the catalytic efficiency (kcat/Km) came out at 485000 ± 57100 M⁻¹ s⁻¹.

The stoichiometry N is the number of molecules, sites or subunits per partner or assembly. What is called Km is the substrate concentration at which the rate is half of its maximum. The term Vmax denotes the rate approached at saturating substrate. One may read the kcat/Km as the turnover number divided by the Michaelis constant.
